Data: US20230220042A1 (SHANGHAI JIAO TONG UNIVERSITY SCHOOL OF MEDICINE, published 2023)

T1: Biotin-FcγRIIB (human, UniProt P31994 43-217, limits assumed, biotin-labelled)
T1 construct: Bought, biotin-labelled; used at 1 µg/ml for staining and sorting; also called human FcγRIIB; CD32b
T1 sequence (looked up): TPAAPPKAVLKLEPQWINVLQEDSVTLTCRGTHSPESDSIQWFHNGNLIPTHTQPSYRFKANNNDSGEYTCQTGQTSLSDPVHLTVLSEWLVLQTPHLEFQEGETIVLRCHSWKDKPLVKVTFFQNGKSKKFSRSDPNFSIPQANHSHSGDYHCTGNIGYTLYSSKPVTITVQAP


The binders below were run against T1, Biotin-FcγRIIB (assay: magnetic sorting on biotin-FcγRIIB with unlabelled activating FcγRs, NGS; Library2).
Procedure: 3T3 cells were collected by trypsin digestion, and a single cell suspension was prepared. […] The cells were incubated for 15 minutes on ice and then washed twice with MACS buffer and re-suspended in 100 μl MACS buffer. Twenty-five μl anti-Biotin magnetic beads were added, and the cells were incubated for 15 minutes on ice and then washed once with MACS buffer and re-suspended to 500 μl, and added to the LS column put in the magnetic field. The effluent was collected, washed with 3 mL of MACS buffer and collected; The LS column was then removed out of the magnetic field, and 5 mL of MACS buffer was used to rapidly elute the remaining cells from the sorting column to collect positive cells, which are the high I/A ratio cells.
The high-FcγRIIB-affinity cells obtained from the above flow cytometry sorting are further sorted by magnetic-activated sorting. The cells are incubated with the mixture of Biotin-labeled FcγRIIB and non-labeled activating FcγRs, and then the labeled cells are sorted by anti-Biotin magnetic beads. The enrichment ratios after sorting relative to before sorting are analyzed by NGS.

Binder	Enrichment factor (percentage after sorting/percentage before sorting)	Increased factor (mutation enrichment factor/wild-type enrichment factor)	Percentage after sorting/unbinding percentage	Percentage before sorting/unbinding percentage
human IgG2 anti-mouse CD40 surface displayed antibody, Fc mutant H268N (antibody, name in EU numbering, as m1; positions are Eu numbers; copies: 2 + 2) light chain (with the P2A rest): DTVLTQSPALAVSPGERVTISCRASDSVSTLMHWYQQKPGQQPKLLIYLASHLESGVPARFSGSGSGTDFTLTIDPVEADDTATYYCQQSWNDPWTFGGGTKLELKRTVAAPSVFIFPPSDEQLKSGTASVVCLLNNFYPREAKVQWKVDNALQSGNSQESVTEQDSKDSTYSLSSTLTLSKADYEKHKVYACEVTHQGLSSPVTKSFNRGECGSGATNFSLLKQAGDVEENPG heavy chain: EVQLVESDGGLVQPGRSLKLPCAASGFTFSDYYMAWVRQAPTKGLEWVASISYDGSSTYYRDSVKGRFTISRDNAKSTLYLQMDSLRSEDTATYYCGRHSSYFDYWGQGVMVTVSSASTKGPSVFPLAPCSRSTSESTAALGCLVKDYFPEPVTVSWNSGALTSGVHTFPAVLQSSGLYSLSSVVTVPSSNFGTQTYTCNVDHKPSNTKVDKTVERKCCVECPPCPAPPVAGPSVFLFPPKPKDTLMISRTPEVTCVVVDVSNEDPEVQFNWYVDGVEVHNAKTKPREEQFNSTFRVVSVLTVVHQDWLNGKEYKCKVSNKGLPAPIEKTISKTKGQPREPQVYTLPPSREEMTKNQVSLTCLVKGFYPSDIAVEWESNGQPENNYKTTPPMLDSDGSFFLYSKLTVDKSRWQQGNVFSCSVMHEALHNHYTQKSLSLSPGKLEPPPSTVSNMATVAVLVVLGAAIVTGAVVAFVMKMRRRNTGGKGGDYALAPGSQTSDLSLPDCKVMVHDPHSLA	2.31	2.79	662	286
human IgG2 anti-mouse CD40 surface displayed antibody, Fc mutant P271I (antibody, name in EU numbering, as m1; positions are Eu numbers; copies: 2 + 2) light chain (with the P2A rest): DTVLTQSPALAVSPGERVTISCRASDSVSTLMHWYQQKPGQQPKLLIYLASHLESGVPARFSGSGSGTDFTLTIDPVEADDTATYYCQQSWNDPWTFGGGTKLELKRTVAAPSVFIFPPSDEQLKSGTASVVCLLNNFYPREAKVQWKVDNALQSGNSQESVTEQDSKDSTYSLSSTLTLSKADYEKHKVYACEVTHQGLSSPVTKSFNRGECGSGATNFSLLKQAGDVEENPG heavy chain: EVQLVESDGGLVQPGRSLKLPCAASGFTFSDYYMAWVRQAPTKGLEWVASISYDGSSTYYRDSVKGRFTISRDNAKSTLYLQMDSLRSEDTATYYCGRHSSYFDYWGQGVMVTVSSASTKGPSVFPLAPCSRSTSESTAALGCLVKDYFPEPVTVSWNSGALTSGVHTFPAVLQSSGLYSLSSVVTVPSSNFGTQTYTCNVDHKPSNTKVDKTVERKCCVECPPCPAPPVAGPSVFLFPPKPKDTLMISRTPEVTCVVVDVSHEDIEVQFNWYVDGVEVHNAKTKPREEQFNSTFRVVSVLTVVHQDWLNGKEYKCKVSNKGLPAPIEKTISKTKGQPREPQVYTLPPSREEMTKNQVSLTCLVKGFYPSDIAVEWESNGQPENNYKTTPPMLDSDGSFFLYSKLTVDKSRWQQGNVFSCSVMHEALHNHYTQKSLSLSPGKLEPPPSTVSNMATVAVLVVLGAAIVTGAVVAFVMKMRRRNTGGKGGDYALAPGSQTSDLSLPDCKVMVHDPHSLA	2.63	3.17	–	–
human IgG2 anti-mouse CD40 surface displayed antibody, Fc mutant P271L (antibody, name in EU numbering, as m1; positions are Eu numbers; copies: 2 + 2) light chain (with the P2A rest): DTVLTQSPALAVSPGERVTISCRASDSVSTLMHWYQQKPGQQPKLLIYLASHLESGVPARFSGSGSGTDFTLTIDPVEADDTATYYCQQSWNDPWTFGGGTKLELKRTVAAPSVFIFPPSDEQLKSGTASVVCLLNNFYPREAKVQWKVDNALQSGNSQESVTEQDSKDSTYSLSSTLTLSKADYEKHKVYACEVTHQGLSSPVTKSFNRGECGSGATNFSLLKQAGDVEENPG heavy chain: EVQLVESDGGLVQPGRSLKLPCAASGFTFSDYYMAWVRQAPTKGLEWVASISYDGSSTYYRDSVKGRFTISRDNAKSTLYLQMDSLRSEDTATYYCGRHSSYFDYWGQGVMVTVSSASTKGPSVFPLAPCSRSTSESTAALGCLVKDYFPEPVTVSWNSGALTSGVHTFPAVLQSSGLYSLSSVVTVPSSNFGTQTYTCNVDHKPSNTKVDKTVERKCCVECPPCPAPPVAGPSVFLFPPKPKDTLMISRTPEVTCVVVDVSHEDLEVQFNWYVDGVEVHNAKTKPREEQFNSTFRVVSVLTVVHQDWLNGKEYKCKVSNKGLPAPIEKTISKTKGQPREPQVYTLPPSREEMTKNQVSLTCLVKGFYPSDIAVEWESNGQPENNYKTTPPMLDSDGSFFLYSKLTVDKSRWQQGNVFSCSVMHEALHNHYTQKSLSLSPGKLEPPPSTVSNMATVAVLVVLGAAIVTGAVVAFVMKMRRRNTGGKGGDYALAPGSQTSDLSLPDCKVMVHDPHSLA	4.43	5.34	143	32.3

Now from value to binder:

Enrichment factor (percentage after sorting/percentage before sorting)	Increased factor (mutation enrichment factor/wild-type enrichment factor)	Percentage after sorting/unbinding percentage	Percentage before sorting/unbinding percentage	Binder
1.86	2.25	52.5	28.2	human IgG2 anti-mouse CD40 surface displayed antibody, Fc mutant S267W (antibody, name in EU numbering, as m1; positions are Eu numbers; copies: 2 + 2) light chain (with the P2A rest): DTVLTQSPALAVSPGERVTISCRASDSVSTLMHWYQQKPGQQPKLLIYLASHLESGVPARFSGSGSGTDFTLTIDPVEADDTATYYCQQSWNDPWTFGGGTKLELKRTVAAPSVFIFPPSDEQLKSGTASVVCLLNNFYPREAKVQWKVDNALQSGNSQESVTEQDSKDSTYSLSSTLTLSKADYEKHKVYACEVTHQGLSSPVTKSFNRGECGSGATNFSLLKQAGDVEENPG heavy chain: EVQLVESDGGLVQPGRSLKLPCAASGFTFSDYYMAWVRQAPTKGLEWVASISYDGSSTYYRDSVKGRFTISRDNAKSTLYLQMDSLRSEDTATYYCGRHSSYFDYWGQGVMVTVSSASTKGPSVFPLAPCSRSTSESTAALGCLVKDYFPEPVTVSWNSGALTSGVHTFPAVLQSSGLYSLSSVVTVPSSNFGTQTYTCNVDHKPSNTKVDKTVERKCCVECPPCPAPPVAGPSVFLFPPKPKDTLMISRTPEVTCVVVDVWHEDPEVQFNWYVDGVEVHNAKTKPREEQFNSTFRVVSVLTVVHQDWLNGKEYKCKVSNKGLPAPIEKTISKTKGQPREPQVYTLPPSREEMTKNQVSLTCLVKGFYPSDIAVEWESNGQPENNYKTTPPMLDSDGSFFLYSKLTVDKSRWQQGNVFSCSVMHEALHNHYTQKSLSLSPGKLEPPPSTVSNMATVAVLVVLGAAIVTGAVVAFVMKMRRRNTGGKGGDYALAPGSQTSDLSLPDCKVMVHDPHSLA
2.91	3.51	–	–	human IgG2 anti-mouse CD40 surface displayed antibody, Fc mutant S267N (antibody, name in EU numbering, as m1; positions are Eu numbers; copies: 2 + 2) light chain (with the P2A rest): DTVLTQSPALAVSPGERVTISCRASDSVSTLMHWYQQKPGQQPKLLIYLASHLESGVPARFSGSGSGTDFTLTIDPVEADDTATYYCQQSWNDPWTFGGGTKLELKRTVAAPSVFIFPPSDEQLKSGTASVVCLLNNFYPREAKVQWKVDNALQSGNSQESVTEQDSKDSTYSLSSTLTLSKADYEKHKVYACEVTHQGLSSPVTKSFNRGECGSGATNFSLLKQAGDVEENPG heavy chain: EVQLVESDGGLVQPGRSLKLPCAASGFTFSDYYMAWVRQAPTKGLEWVASISYDGSSTYYRDSVKGRFTISRDNAKSTLYLQMDSLRSEDTATYYCGRHSSYFDYWGQGVMVTVSSASTKGPSVFPLAPCSRSTSESTAALGCLVKDYFPEPVTVSWNSGALTSGVHTFPAVLQSSGLYSLSSVVTVPSSNFGTQTYTCNVDHKPSNTKVDKTVERKCCVECPPCPAPPVAGPSVFLFPPKPKDTLMISRTPEVTCVVVDVNHEDPEVQFNWYVDGVEVHNAKTKPREEQFNSTFRVVSVLTVVHQDWLNGKEYKCKVSNKGLPAPIEKTISKTKGQPREPQVYTLPPSREEMTKNQVSLTCLVKGFYPSDIAVEWESNGQPENNYKTTPPMLDSDGSFFLYSKLTVDKSRWQQGNVFSCSVMHEALHNHYTQKSLSLSPGKLEPPPSTVSNMATVAVLVVLGAAIVTGAVVAFVMKMRRRNTGGKGGDYALAPGSQTSDLSLPDCKVMVHDPHSLA
2.74	3.3	22.2	8.1	human IgG2 anti-mouse CD40 surface displayed antibody, Fc mutant P271S (antibody, name in EU numbering, as m1; positions are Eu numbers; copies: 2 + 2) light chain (with the P2A rest): DTVLTQSPALAVSPGERVTISCRASDSVSTLMHWYQQKPGQQPKLLIYLASHLESGVPARFSGSGSGTDFTLTIDPVEADDTATYYCQQSWNDPWTFGGGTKLELKRTVAAPSVFIFPPSDEQLKSGTASVVCLLNNFYPREAKVQWKVDNALQSGNSQESVTEQDSKDSTYSLSSTLTLSKADYEKHKVYACEVTHQGLSSPVTKSFNRGECGSGATNFSLLKQAGDVEENPG heavy chain: EVQLVESDGGLVQPGRSLKLPCAASGFTFSDYYMAWVRQAPTKGLEWVASISYDGSSTYYRDSVKGRFTISRDNAKSTLYLQMDSLRSEDTATYYCGRHSSYFDYWGQGVMVTVSSASTKGPSVFPLAPCSRSTSESTAALGCLVKDYFPEPVTVSWNSGALTSGVHTFPAVLQSSGLYSLSSVVTVPSSNFGTQTYTCNVDHKPSNTKVDKTVERKCCVECPPCPAPPVAGPSVFLFPPKPKDTLMISRTPEVTCVVVDVSHEDSEVQFNWYVDGVEVHNAKTKPREEQFNSTFRVVSVLTVVHQDWLNGKEYKCKVSNKGLPAPIEKTISKTKGQPREPQVYTLPPSREEMTKNQVSLTCLVKGFYPSDIAVEWESNGQPENNYKTTPPMLDSDGSFFLYSKLTVDKSRWQQGNVFSCSVMHEALHNHYTQKSLSLSPGKLEPPPSTVSNMATVAVLVVLGAAIVTGAVVAFVMKMRRRNTGGKGGDYALAPGSQTSDLSLPDCKVMVHDPHSLA
